In the supplement of paper PMC6757056:
± gives the standard deviation of the averaged measurements.

B1: library; a variant is named by its letters at N, in order (parent)
chain: GCUGUCACCGAGAAACUGUGAAGUAUAUCUUAAACCUGGGCACUUAAAAGAUAUAUGGAGUUAGUAGUGCAACCUGCUCGGUCUGAUGAGUCCNNNNNNGGACGAAACAGC

How the values were obtained:
cyclic di-GMP [1] = variants of: B1; assay: FACS-Seq fitted mean relative fluorescence mCherry/BFP without ligand (log10 relative fluorescence); HEK293T; ligand: cyclic di-GMP (c-di-GMP-II aptamer); higher = higher reporter protein expression; conditions: ligand present: no
Procedure, shortened: (§1)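 An mCherry reporter containing the ribozyme switch and an EF1α-BFP marker were introduced by lentivirus into HEK293T libraries. Cells were enriched, incubated 48 h with or without ligand, sorted into 6 bins by mCherry/BFP, and bin genomic DNA was PCR-amplified, barcoded and sequenced on MiSeq. Fluorescence represents the normalized fitted normal mean of the bin counts. Fitting was done on log10(mCherry/BFP), scaling to five spiked-in control ribozymes.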

cyclic di-GMP [2] = variants of: B1; assay: normalized RNA/DNA level without ligand (relative to sTRSVctl = 100) (log10 (% of sTRSVctl)); HEK293T; ligand: cyclic di-GMP (c-di-GMP-II aptamer); higher = less ribozyme self-cleavage, higher mRNA level; conditions: reporter: mCherry (pCS4076), ligand present: no
Procedure, shortened: (§2)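 RNA level was computed as RNA reads over DNA reads divided by a spiked-in non-cleaving sequence or by the top sequences, then scaled and log-transformed. Scaling was ×100 with log10, the top group was 25 sequences, and the threshold was ≥100 DNA reads. The reads came from HEK293T cells transfected at 4 µg per 6-well well with ribozyme switch library plasmids (mCherry, or eGFP in some ligand experiments). Total RNA was extracted with EDTA 72 h after transfection, with any ligand added 1 h before it.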

cyclic di-GMP [3] = variants of: B1; assay: FACS-Seq fitted mean relative fluorescence mCherry/BFP with ligand (log10 relative fluorescence); HEK293T; ligand: cyclic di-GMP (c-di-GMP-II aptamer); ligand concentration (+) FACS-Seq: 1 mM; higher = higher reporter protein expression; conditions: ligand present: yes
Procedure, shortened: as §1

cyclic di-GMP [4] = variants of: B1; assay: normalized RNA/DNA level with ligand (relative to sTRSVctl = 100) (log10 (% of sTRSVctl)); HEK293T; ligand: cyclic di-GMP (c-di-GMP-II aptamer); ligand concentration (+) RNA-Seq: 1 mM; higher = less ribozyme self-cleavage, higher mRNA level; conditions: reporter: mCherry (pCS4076), ligand present: yes
Procedure, shortened: as §2

Row | Variant | FACS-Seq fitted mean (log10) (cyclic di-GMP [1]) | normalized RNA/DNA level without ligand (log10) (cyclic di-GMP [2]) | FACS-Seq fitted mean (log10) (cyclic di-GMP [3]) | normalized RNA/DNA level with ligand (log10) (cyclic di-GMP [4])
1 | UUCGUG | -0.959 ± 0.031 | 1.71 ± 0.022 | -0.86 ± 0.094 | 1.86 ± 0.1
2 | AAGCAA | -0.642 ± 0.0094 | 1.56 ± 0.039 | -0.454 ± 0.097 | 1.72 ± 0.062
3 | UUAAAU | -0.418 ± 0.091 | 1.711 ± 0.0058 | -0.275 ± 0.024 | 1.86 ± 0.11
4 | CGUGGA | -0.426 ± 0.029 | 1.41 ± 0.1 | -0.0424 ± 0.071 | 1.62 ± 0.035
5 | GCGAUC | -0.51 ± 0.012 | 1.16 ± 0.039 | -0.206 ± 0.014 | 1.34 ± 0.15
6 | AAAAUU | -0.708 ± 0.058 | 1.62 ± 0.034 | -0.4137 ± 0.00058 | 1.76 ± 0.085
7 | UUAUAU | -0.127 ± 0.066 | 1.68 ± 0.0031 | 0.0702 ± 0.1 | 1.8 ± 0.081
8 | GCUGUG | -0.283 ± 0.07 | 1.64 ± 0.018 | -0.00737 ± 0.013 | 1.79 ± 0.085
9 | GCUGUA | -0.0986 ± 0.038 | 1.6 ± 0.04 | 0.213 ± 0.017 | 1.74 ± 0.12
10 | CGUUCA | -0.111 ± 0.098 | 1.39 ± 0.12 | 0.115 ± 0.005 | 1.59 ± 0.12
11 | GAGCUG | 0.303 ± 0.085 | 1.82 ± 0.078 | 0.439 ± 0.013 | 1.89 ± 0.1
12 | ACAAUG | -0.431 ± 0.026 | 1.39 ± 0.15 | -0.0705 ± 0.082 | 1.66 ± 0.098
13 | CGACUG | -0.0298 ± 0.017 | 1.703 ± 0.0006 | 0.297 ± 0.061 | 1.83 ± 0.074
14 | UACGGA | -1.08 ± 0.21 | 1.61 ± 0.053 | -0.994 ± 0.18 | 1.76 ± 0.1
15 | CUGAUA | -0.362 ± 0.04 | 1.27 ± 0.11 | -0.182 ± 0.1 | 1.5 ± 0.1
16 | ACAGCG | -0.358 ± 0.013 | 1.75 ± 0.0045 | -0.079 ± 0.031 | 1.86 ± 0.1
17 | UCUUAG | 0.0393 ± 0.27 | 1.66 ± 0.05 | 0.27 ± 0.049 | 1.8 ± 0.086
18 | GUUUGA | -0.499 ± 0.039 | 1.56 ± 0.086 | -0.212 ± 0.018 | 1.71 ± 0.042

Row | Variant | FACS-Seq fitted mean (log10) (cyclic di-GMP [1]) | normalized RNA/DNA level without ligand (log10) (cyclic di-GMP [2]) | FACS-Seq fitted mean (log10) (cyclic di-GMP [3]) | normalized RNA/DNA level with ligand (log10) (cyclic di-GMP [4])
19 | CGUGAC | -0.217 ± 0.012 | 1.58 ± 0.081 | 0.0888 ± 0.11 | 1.74 ± 0.092
20 | ACACUA | -0.717 ± 0.027 | 1.44 ± 0.038 | -0.414 ± 0.055 | 1.66 ± 0.15
21 | GCAAUC | -0.612 ± 0.083 | 1.27 ± 0.1 | -0.425 ± 0.016 | 1.52 ± 0.1
22 | CUUUAA | -0.402 ± 0.005 | 1.32 ± 0.094 | -0.039 ± 0.028 | 1.54 ± 0.087
23 | CCGAAA | -0.628 ± 0.032 | 1.31 ± 0.12 | -0.282 ± 0.0032 | 1.53 ± 0.1
24 | AGUAGU | 0.132 ± 0.03 | 1.64 ± 0.066 | 0.367 ± 0.029 | 1.78 ± 0.13
25 | ACCCAC | 0.134 ± 0.14 | 1.69 ± 0.029 | 0.321 ± 0.024 | 1.84 ± 0.15
26 | UGUAUA | -0.0844 ± 0.055 | 1.73 ± 0.083 | 0.221 ± 0.027 | 1.87 ± 0.073
27 | AUGACU | -1.21 ± 0.091 | 1.71 ± 0.0041 | -0.93 ± 0.06 | 1.85 ± 0.11
28 | GAAGAA | -0.423 ± 0.0092 | 1.38 ± 0.15 | -0.233 ± 0.045 | 1.59 ± 0.08
29 | AGCGGU | -0.189 ± 0.03 | 1.64 ± 0.024 | 0.149 ± 0.093 | 1.8 ± 0.1
30 | GUAGCA | 0.112 ± 0.04 | 1.83 ± 0.043 | 0.201 ± 0.053 | 1.87 ± 0.13
31 | UCAAUU | -0.69 ± 0.034 | 1.585 ± 0.0066 | -0.175 ± 0.22 | 1.77 ± 0.13
32 | GUUCGU | -0.35 ± 0.027 | 1.66 ± 0.01 | 0.0521 ± 0.011 | 1.8 ± 0.074
33 | GAUUGA | 0.00942 ± 0.089 | 1.5 ± 0.084 | 0.252 ± 0.042 | 1.7 ± 0.072
34 | UAACGG | -0.162 ± 0.15 | 1.6716 ± 2.5e-05 | 0.21 ± 0.0062 | 1.82 ± 0.1
35 | AGACUA | -0.122 ± 0.029 | 1.55 ± 0.038 | 0.261 ± 0.022 | 1.74 ± 0.14
36 | AGUUAG | -0.315 ± 0.053 | 1.54 ± 0.059 | -0.0278 ± 0.059 | 1.75 ± 0.11
